From the supplement of paper PMC7877785
± gives the uncertainty stated by the source.

Assay: self-splicing fitness, log relative to wild type (ln ratio); higher = more splicing; Tetrahymena group I intron in knt gene, E. coli kanamycin selection, DiMSum; sequences stand for … in CUCUCU…GGAGGGAAAAGUUAUCAGGCAUGCACCUGGUAGCUAGUCUUUAAACCAAUAGAUUGCAUCGGUUUAAAAGGCAAGACCGUCAAAUUGCGGGAAAGGGGUCAACAGCCGUUCAGUACCAAGUCUCAGGGGAAACUUUGAGAUGGCCUUGCAAAGGGUAUGGUAAUAAGCUGACGGACAUGGUCCUAACCACGCAGCCAAGUCCUAAGUCAACAGAUCUUCUGUUGAUAUGGAUGCAGUUCACAGACUAAAUGUCGGUCGGGGAAGAUGUAUUCUUCUCAUAAGAUAUAGUCGGACCUCUCCUUAAUGGGAGCUAGCGGAUGAAGUGAUGCAACACUGGAGCCGCUGGGAACUAAUUUGUAUGCGAAAGUAUAUUGAUUAGUUUUGGAGUACUCGUGGUCG
In short: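 Six replicate transformations of E. coli BL21(DE3) with a pET-22b(+) library were grown overnight at 37°C or 30°C. The library randomised all eight P1ex-region intron nucleotides, the intron lying in the knt kanamycin-resistance gene, and plates were LB agar with or without 25 μg/mL kanamycin plus 100 μg/mL carbenicillin, 50 μM IPTG and 0.2% rhamnose. Pooled colonies were amplicon-sequenced on an Illumina HiSeq 2500, and fitness is the DiMSum error-weighted combination of wild-type-normalised replicate fold changes, kanamycin versus none.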

Row | Sequence | self-splicing fitness (ln) (30 °C) | self-splicing fitness (ln) (37 °C)
1 | UAGCAGCAAUAUUACGUCGU | -3.4 ± 0.14 | -1.97 ± 0.12
2 | UAGCAGCAAUAUUACGUUAC | – | -1.36 ± 0.22
3 | UAGCAGCAAUAUUACGUUUA | -1.26 ± 0.067 | -0.291 ± 0.078
4 | UAGCAGCAAUAUUACGUUUC | -2.78 ± 0.29 | -1.85 ± 0.33
5 | UAGGAGCAAUAUUACGAAUA | -1.13 ± 0.41 | –
6 | UAGGAGCAAUAUUACGACGA | -1.21 ± 0.2 | -0.888 ± 0.28
7 | UAGGAGCAAUAUUACGAGGC | -2.87 ± 0.17 | -3 ± 0.29
8 | UAGGAGCAAUAUUACGAUUA | -0.679 ± 0.065 | 0.31 ± 0.094
9 | UAGGAGCAAUAUUACGCCUA | -3.16 ± 0.34 | -3.02 ± 0.35
10 | UAGGAGCAAUAUUACGCGCA | -0.955 ± 0.1 | -0.414 ± 0.12
11 | UAGGAGCAAUAUUACGCGCC | – | -1.03 ± 0.37
12 | UAGGAGCAAUAUUACGCGGG | – | -1.24 ± 0.21
13 | UAGGAGCAAUAUUACGCUGG | -2.38 ± 0.43 | -0.826 ± 0.28
14 | UAGGAGCAAUAUUACGGACG | – | -0.862 ± 0.38
15 | UAGGAGCAAUAUUACGGGGG | – | -2.74 ± 0.41
16 | UAGGAGCAAUAUUACGUAAA | -2.09 ± 0.16 | -1.49 ± 0.15
17 | UAGGAGCAAUAUUACGUAGC | -3.98 ± 0.24 | -2.74 ± 0.21
18 | UAGGAGCAAUAUUACGUCCA | -1.23 ± 0.17 | -0.339 ± 0.18
19 | UAGGAGCAAUAUUACGUGCG | -2.89 ± 0.17 | -0.951 ± 0.16
20 | UAGGAGCAAUAUUACGUGUU | -2.97 ± 0.13 | -2.51 ± 0.17
21 | UAGGAGCAAUAUUACGUUAC | – | -2.08 ± 0.32
22 | UAGUAGCAAUAUUACGACAG | -2.01 ± 0.3 | -1.18 ± 0.37
23 | UAGUAGCAAUAUUACGACCU | -0.902 ± 0.11 | 0.242 ± 0.11
24 | UAGUAGCAAUAUUACGCAGA | -2.43 ± 0.23 | -2.99 ± 0.18
25 | UAGUAGCAAUAUUACGCAUA | -1.58 ± 0.11 | -1.69 ± 0.11

Row | Sequence | self-splicing fitness (ln) (30 °C) | self-splicing fitness (ln) (37 °C)
26 | UAGUAGCAAUAUUACGCCCU | -1.34 ± 0.21 | -0.583 ± 0.2
27 | UAGUAGCAAUAUUACGGCGG | -0.668 ± 0.085 | -0.639 ± 0.11
28 | UAGUAGCAAUAUUACGGCGU | -2.15 ± 0.17 | -1.2 ± 0.17
29 | UAGUAGCAAUAUUACGGGAG | -3.69 ± 0.4 | -2.3 ± 0.45
30 | UAGUAGCAAUAUUACGGUGG | -3.44 ± 0.27 | -2.09 ± 0.2
31 | UAGUAGCAAUAUUACGUCUA | 0.265 ± 0.095 | 0.659 ± 0.1
32 | UAGUAGCAAUAUUACGUGCC | -2.98 ± 0.25 | -2.11 ± 0.27
33 | UAUAAGCAAUAUUACGCAAG | -1.86 ± 0.23 | 0.725 ± 0.17
34 | UAUAAGCAAUAUUACGCAGU | -3.27 ± 0.2 | -1.68 ± 0.15
35 | UAUAAGCAAUAUUACGCAUG | -0.714 ± 0.12 | -0.154 ± 0.13
36 | UAUAAGCAAUAUUACGCCAG | -0.478 ± 0.21 | -0.728 ± 0.27
37 | UAUAAGCAAUAUUACGCGGC | -3.53 ± 0.35 | -2.92 ± 0.47
38 | UAUAAGCAAUAUUACGCGUC | -3.23 ± 0.28 | -1.14 ± 0.23
39 | UAUAAGCAAUAUUACGCUGU | -2.45 ± 0.2 | -3.32 ± 0.35
40 | UAUAAGCAAUAUUACGGAGU | -3.46 ± 0.32 | -1.46 ± 0.2
41 | UAUAAGCAAUAUUACGGAUG | -0.677 ± 0.055 | -0.286 ± 0.083
42 | UAUAAGCAAUAUUACGGCGA | -0.0284 ± 0.1 | -0.427 ± 0.11
43 | UAUAAGCAAUAUUACGGCGG | 0.309 ± 0.2 | -0.0854 ± 0.25
44 | UAUAAGCAAUAUUACGGGCG | -0.413 ± 0.14 | 0.339 ± 0.17
45 | UAUAAGCAAUAUUACGGUGA | -1 ± 0.13 | -0.726 ± 0.13
46 | UAUAAGCAAUAUUACGGUGU | -2.97 ± 0.26 | -1.34 ± 0.18
47 | UAUAAGCAAUAUUACGGUUA | 0.0292 ± 0.084 | 0.311 ± 0.095
48 | UAUAAGCAAUAUUACGUAAC | -3.16 ± 0.27 | 0.142 ± 0.22
49 | UAUAAGCAAUAUUACGUGCG | -0.452 ± 0.11 | -0.00615 ± 0.17
50 | UAUAAGCAAUAUUACGUUAU | -2.58 ± 0.19 | -2.3 ± 0.28
